Columns and labels:
[1] = specific initial activity, cyclohex-2-enone reduction (U mg-1); higher = more active
Protocol: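 Purified His-tagged ene reductases in 50 mM sodium phosphate pH 7.4 with 0-30% (v/v) organic co-solvent. Melting temperature was measured by the ThermoFMN assay (FMN fluorescence, 20-90 °C at 1 °C/min, inflection point, triplicate). Specific initial activity was measured with 10 mM cyclohex-2-enone and 0.2 mM NAD(P)H (NADH for LacER) as A340 depletion, at room temperature (DMSO, 2-propanol, n-propanol) or 25 °C (EtOH, MeOH), in triplicate. The TsOYE Tm is above the 90 °C measurement range.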

[2] = melting temperature (ThermoFMN); higher = more thermostable
Protocol: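 Purified His-tagged ene reductases (1 mg/ml) in 50 mM sodium phosphate pH 7.4 with 0-30% (v/v) organic co-solvent. Melting temperature was measured by the ThermoFMN assay (FMN fluorescence, 20-90 °C at 1 °C/min, inflection point, triplicate). Specific initial activity was measured with 10 mM cyclohex-2-enone and 0.2 mM NAD(P)H (NADH for LacER) as A340 depletion, at room temperature (DMSO, 2-propanol, n-propanol) or 25 °C (EtOH, MeOH), in triplicate. The TsOYE Tm is above the 90 °C measurement range.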

MARKLFTPITIKDMTLKNRIVMSPMCMYSSHEKDGKLTPFHMAHYISRAIGQVGLIIVEASAVNPQGRITDQDLGIWSDEHIEGFAKLTEQVKEQGSKIGIQLAHAGRKAELEGDIFAPSAIAFDEQSATPVEMSAEKVKETVQEFKQAAARAKEAGFDVIEIHAAHGYLIHEFLSPLSNHRTDEYGGSPENRYRFLREIIDEVKQVWDGPLFVRVSASDYTDKGLDIADHIGFAKWMKEQGVDLIDCSSGALVHADINVFPGYQVSFAEKIREQADMATGAVGMITDGSMAEEILQNGRADLIFIGRELLRDPFFARTAAKQLNTEIPAPVQYERGW
Conditions	melting temperature, co-solvent: 2-propanol [°C]	melting temperature, co-solvent: dimethyl sulfoxide [°C]	melting temperature, co-solvent: ethanol [°C]	melting temperature, co-solvent: methanol [°C]	melting temperature, co-solvent: n-propanol [°C]	specific initial activity, co-solvent: 2-propanol	specific initial activity, co-solvent: dimethyl sulfoxide	specific initial activity, co-solvent: ethanol	specific initial activity, co-solvent: methanol	specific initial activity, co-solvent: n-propanol
[1], co-solvent concentration (% v/v): 0	–	–	–	–	–	0.49	0.52	0.46	0.51	0.5
[1], co-solvent concentration (% v/v): 5	–	–	–	–	–	0.34	0.4	0.33	0.39	0.25
[1], co-solvent concentration (% v/v): 10	–	–	–	–	–	0.21	0.33	0.21	0.3	0.17
[1], co-solvent concentration (% v/v): 15	–	–	–	–	–	0.16	0.25	0.07	0.13	0.12
[1], co-solvent concentration (% v/v): 20	–	–	–	–	–	0.11	0.17	0.03	0.12	0.05
[1], co-solvent concentration (% v/v): 25	–	–	–	–	–	0.14	0.1	0.03	0.07	0
[1], co-solvent concentration (% v/v): 30	–	–	–	–	–	0.06	0.05	0.02	0.05	0
[2], co-solvent concentration (% v/v): 0	50.7	51	51	51	51	–	–	–	–	–
[2], co-solvent concentration (% v/v): 5	40	49.3	45	48.3	43.3	–	–	–	–	–
[2], co-solvent concentration (% v/v): 10	36.3	48	42.3	43.3	35.3	–	–	–	–	–
[2], co-solvent concentration (% v/v): 15	34	46.7	38.3	40	29.7	–	–	–	–	–
[2], co-solvent concentration (% v/v): 20	31.3	46	35	39.3	28.3	–	–	–	–	–
[2], co-solvent concentration (% v/v): 25	27.3	45	33	36.7	27.7	–	–	–	–	–
[2], co-solvent concentration (% v/v): 30	24.3	44	31	33	26.7	–	–	–	–	–

From the supplement of paper PMC11208486
